Results on one protein are retold here after publication PMC4208085 (FEBS Open Bio, 2014).

This series concerns the molecule itself. The series can be described thus: crystal structure.

B1: C-terminal soluble domain of STOPP (stomatin operon partner protein) PH1510 from Pyrococcus horikoshii (domain or fragment, UniProt O59179 371-441, looked up)
chain: KARTGKEEMIGLIGTVVEELNPEGMIKVRGELWKARSKFNGKIEKGEKVRVVDMDGLTLIVVRERKEGGEK
Regarding B1, the binding result is reported as “binds”.
